B1: TPR t1 (parent)
chain: GACCAAUCUGCCCUCAGAGCUCGAGAACAUCUUCGGAUGCAGAGGAGGCAGGCUUCGGUGGCGCGAUAGCGCCAACGUCCUCAACCUCCAAUGCAUCCCACCACAUGAUGAUGCCUGAAGAGCCUUGGUUUUUUG

Variants of: B1
Test: polymerase ribozyme fitness, log enrichment relative to wild type (log ratio); higher = more active; in vitro selection for triplet polymerase activity
Summary of the method: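 Genotype fitness is the logarithm of its enrichment divided by wild-type enrichment, using inverse-variance-weighted averages of replicates. That logarithm is base 2. Enrichment was measured by Illumina sequencing of input and output libraries from one triplicate in vitro selection round, with frozen incubation at −7 °C, on PCR-built, transcribed mutant libraries of each subunit of a heterodimeric triplet polymerase ribozyme, retaining genotypes with ≥10 input reads and ≥1 read per output.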
For GACCAAUCUGCCCUCAGAGCUCGAGAACGUCUUCGGAUGCUGAGGCGGCAGGCUUCGGUGGCCCGAUAGCGCCAACGUCCUCAACCUCCAAUGCAUCCCACCACAUGAUGAUGCCUGAAGAGCCUUGGUUUUUUG, the “polymerase ribozyme fitness (log ratio)” value was -5.41. In the case of GACCAAUCUGCCCUCAGAGCUCGAGAACGUCUUCGGAUGCAGAGGAGGCAGGCUUCGGUGGCGCGAUAGCGCUAACGUCCUCAACCUCCAAUGCAUCCCACCACAUGAUGAUGCCUGAAGAGCCUUGGUUUUUUG, the “polymerase ribozyme fitness (log ratio)” value is reported as -1.55. With GACCAAUCUGCCCUCAGAGCUCGAGAAUAUCCUCGGAUGCAGAGGAGGCAGGCUUCGGUGGCGCGAUAGCACCAACGUCCUCAACCUCCAAUGCAUCCCACCACAUGAUGAUGCCUGAAGAGCCUUGGUUUUUUG the “polymerase ribozyme fitness (log ratio)” value was -2.59. With GACCAAUCUGCCCUCAGAGCUCGAGAACGUCUUCGGAUGCAGAGGAGGCAGGGUUCGGUGGCGCGAUAGCGCCAACGUCCUCAACCUCCAAUGCGUCCCACCACAUGAUGAUGCCUGAAGAGCCUUGGUUUUUUG the “polymerase ribozyme fitness (log ratio)” value was -2.04. In the case of GACCAAUCUGCCCUCAGAGCUCGAGAAUAUCUUCGGAUGCAGAGGAGGCAGGCUUCGGUGGCGCGAUAGCGCCAACGUCCUCAACCUCCAAUGCAUCCCACCACAUGAUGAUGCCUGAAGAGCCAUGGUUUUUUG, the “polymerase ribozyme fitness (log ratio)” value is reported as -2.25. With GACCAAUCUGCCCUCAGAGCUCGAGAACGUCUUCGGAUGCAGAGGAGGCAGGCUUCGGUGGCGCGAUAGUGCCAACGUCCUCAACCUCCAAUUCAUCCCACCACAUGAUGAUGCCUGAAGAGCCUUGGUUUUUUG the “polymerase ribozyme fitness (log ratio)” value was -3. With GACCAAUCUGCCCUCAGAGCUCGAGAACCUCUUCGGAUGCAGAGGAGGCAGGCUUCGGUGGUGCGAUAGCGCCAACGUCCUCAACCUCCAAUGAAUCCCACCACAUGAUGAUGCCUGAAGAGCCUUGGUUUUUUG the “polymerase ribozyme fitness (log ratio)” value was -3.98. For GACCAAUCUGCCCUCAGAGCUCGAGAACGUCUUCGGGUGCAGAGGAGGCAGGCGUCGGUGGCGCGAUACCGCCAACGUCCUCAACCUCCAAUGCAUCCCACCACAUGAUGAUGCCUGAAGAGCCUUGGUUUUUUG, the “polymerase ribozyme fitness (log ratio)” value was -7.29. In the case of GACCAAUCUGCCCUCAGAGCUCGAGAAUAUCUUCGGAUGCAGAGGAGGCAGGCUUCGGUGGCGCGAUAGCGCCAACGUCCUCAACCUCCAAUGCAUCCCACCACAUGAUGAUGCCUGAAGAGCCUUUGUUUUUUG, the “polymerase ribozyme fitness (log ratio)” value is reported as -2.17. In the case of GACCAAUCUGCCCUCAGAGCUCGAGAACGUCUUCGGAUGCAGGGGAGGCAGGCUUCGGUGGCGCGAUAGCGCCAACGUCCUCAACCUCCAAUGCAUCCCACCACAUUAUGAUGCCUGAAGAGCUUUGGUUUUUUG, the “polymerase ribozyme fitness (log ratio)” value is reported as -6.92. With GACCAAUCUGCCCUCAGAGCUCGAGAACCUCUUCGUAUGCAGUAGAGGCAGGCUUCGGUGGCGCGAUAUCGCCAACGUCCUCAACCUCCAAUGCAUCCCACCACAUGAUGAUGCCUGAAGCGCCUUGGUUUUUUG the “polymerase ribozyme fitness (log ratio)” value was -2.34. In the case of GACCAAUCUGCCCUCAGAGCUCGAGAAUAUCUUCGGAUGCAGAGGAGGCAGGCUUCGGUGGCGCGAUAGCGCCAACGUCCUCAACCUCCAAUGCAUCCCACCACAUGAUGAUGCCUGAAGAGCCUUGGAUUUUUG, the “polymerase ribozyme fitness (log ratio)” value is reported as -3.1. With GACCAAUCUGCCCUCAGAGCUCGAGAAUAUCUUCGGAUGCAGAGGAGGCAGGCUUCGGUGGCGCGAUAGCGCCAACGUCCUCAACCUCCAAUGCAUCCCACCACAUGAUUAUGCCUGAAGAGCCUUGGUUUUUUG the “polymerase ribozyme fitness (log ratio)” value was -1.44. For GACCAAUCUGCCCUCAGAGCUCGAGAAUAUCUUCGGAUGCAGAGGAGGCAGGCUUCGGUGGCGCGAUAGCGCCAACGUCCUCAACCUCCAAUGCAUCCCACCACAUGAUGAUACCUGAAGAGCCUUGGUUUUUUG, the “polymerase ribozyme fitness (log ratio)” value was -2. For GACCAAUCUGCCCUCAGAGCUCGAGAAUAUCUUCGGAUGCAGAGGAGGCAGGCUUCGGUGGCGCGAUAGCGCCAACGUCCUCAACCUCCAAUGCAUCCCACCACAUGAUGAUCCCUGAAGAGCCUUGGUUUUUUG, the “polymerase ribozyme fitness (log ratio)” value was -3.57. For GACCAAUCUGCCCUCAGAGCUCGAGAACGUCUUCGGAUGCAGAGGAGGCAGGCUUCGGUGGCGCGAUAGCGCCAACGUCCUCAACCUUCAAUGCAUCCCACCACAUGAUGAUGCCUGAAGAGCCUUGGUUUUUUG, the “polymerase ribozyme fitness (log ratio)” value was -1.2. For GACCAAUCUGCCCUCAGAGCUCGAGAACCUCUUCGGAUGCCGAGGAGGCAGGCUUCGGUGUCGCGAUAGCGCCAACGUCCUCAACCUCCAAUGCAUCCCACCACAUGAUGAUGCCUGAAGAGCCUUGGUUUUUUG, the “polymerase ribozyme fitness (log ratio)” value was -3.33. With GACCAAUCUGCCCUCAGAGCUCGAGAACGUCUUCGGAUGCGGAGGAGGCAGGCUUCGGUGGCGCGAUAGCGCCAACGUCCUCAACCUCCAAUGCAUCCCACCACAUGAUGAUGCCUGAAGAGCCUUGGUUUUUUG the “polymerase ribozyme fitness (log ratio)” value was -1.22. For GACCAAUCUGCCCUCAGAGCUCGAGAACGUCUUCGGAUGCUGAGGAGGCAGGCUUCGGUGGCGCGAUAGCGCCAACGUCCUCAACCUCCAAUGCAUCCCACCACAUGAUGAUGCCUGAAGAGCCUUGGUUUUUUG, the “polymerase ribozyme fitness (log ratio)” value was -1.6. In the case of GACCAAUCUGCCCUCAGAGCUCGAGAACGUCUUCGGAUGCAGAGGAGGCAGGCUUCGGUGGCGCGAUAGCGCCUACGUCCUCAACCUCCAAUGCAUCCCACCACAUGAAGAUGUCUGAAGAGCCUUGGUUUUUUG, the “polymerase ribozyme fitness (log ratio)” value is reported as -4.26. In the case of GACCAAUCUGCCCUCAGAGCUCGAGAACCUCUUCGGAUGCAGAGGAGGCAGGCUUCGGUGGCGCGAUAGCGCCAACGUCCUCAGCCACCAAUGCAUCCCACCAUAUGAUGAUGCCUGAAGAGCGUUGGUUUUUUG, the “polymerase ribozyme fitness (log ratio)” value is reported as -1.28. In the case of GACCAAUCUGCCCUCAGAGCUCGAGAACGUCUUCGGAUGCAGAGGAGGCAGGCUUCGGUGGCGCGAUAGCGCCAACGUCCUCAACCUCCAAUGCAUCCCACCACAUGAUGAUGCCUGAAGAGACUUGGUUUUUUG, the “polymerase ribozyme fitness (log ratio)” value is reported as -0.494. For GACCAAUCUGCCCUCAGAGCUCGAGAACCUCUUCGGAUGCAGAGGAGGCAGGCUUCGGUGGAGCGAUAGCGCCAACGUCCUCAACCUCCAAUGCAUCCCACCACAUGAUGAUGCCUGAAGAGCGUUGGCUUUUUG, the “polymerase ribozyme fitness (log ratio)” value was -3.09. With GACCAAUCUGCCCUCAGAGCUCGAGAACCUCUUCGGAUGCAGAGGAGGCAGGCUUGGGUGGCGCGAUAGCGCAAACGUCCUCAACCUCCAAUGCAUCCCACCACAUGAUGAUGCCUGAGGAGCCUUGGUUUUUUG the “polymerase ribozyme fitness (log ratio)” value was -3.16. For GACCAAUCUGCCCUCAGAGCUCGAGAACCUCUUCGGAUGCAGAGGAGGCAGGCUUCGGUGGCGCGAUAGCGCCAACGUCCUCAACCUCCAAUGCAUCCCACCACAAGAUGAUGCCUGAAGAGCCUUGGUUUUUUG, the “polymerase ribozyme fitness (log ratio)” value was -1.93. In the case of GACCAAUCUGCCCUCAGAGCUCGAGAACCUCUUCGGAUGCAGAGGAGGCAGGCUUCGGUGGCGCGAUAGUGCCAACGUCCUCAACCUCCAAUGCAUCCCACCACAUGAUGAUGCCUGGAGAGCCUUGGUUUUUUG, the “polymerase ribozyme fitness (log ratio)” value is reported as -2.26. In the case of GACCAAUCUGCCCUCAGAGCUCGAGAAUAUCUUCGGAUGCAGAGGAGGCAGGCUUCGGUGGCGCGAUAGCGCCAACGUCCUCAACCUCCAAUGCAGCCCACCACAUGAUGAUGCCUGAAGAGCCUUGGUUUUUUG, the “polymerase ribozyme fitness (log ratio)” value is reported as -2.43. With GACCAAUCUGCCCUCAGAGCUCGAGAACGUCUUAGGAUGAAGAGGAGGCAGGCUUCGGUGGCGCGAUAGCGCCAACGUCCUCAACCUCCAAUGCAUCCCACCACAGGAUGAUUCCUGAAGAGCCUCGGUUUUUUG the “polymerase ribozyme fitness (log ratio)” value was -7.15. For GACCAAUCUGCCCUCAGAGCUCGAGAACGUCUUCGGAUGCAGAGGAGGCAGGCUUCGGUGGCGCGAUAGGGCCAACGUCCUCAACCUCCAAUGCAUCCCACCACAUGAUGAUGCCUGAAAAGCCUUGGUUUUUUG, the “polymerase ribozyme fitness (log ratio)” value was -2.72. In the case of GACCAAUCUGCCCUCAGAGCUCGAGAACGUCUUCGGAUGCAGAGGAGGCAGGCUUCGGUGGCGCGAUAGCGCCAACGUCCUCAACCUCCAAUGCAUCCCACCACAUGAUGAUGCAUGAAGAGCCUUGGUUUUUUG, the “polymerase ribozyme fitness (log ratio)” value is reported as -0.195. In the case of GACCAAUCUGCCCUCAGAGCUCGAGAAUAUCUUCGGAAGCAGAGGAGGCAGGCUUCGGUGGCGCGAUAGCGCCAACGUUCUCAACCUCCAAUGCAUCCCACCAAAUGAUGAUGCCUGAAGAGCAUUGGUUUUGUG, the “polymerase ribozyme fitness (log ratio)” value is reported as -4.38. In the case of GACCAAUCUGCCCUCAGAGCUCGAGAACGUCUUCGGAUGCAGAGGUGGCAGUCUUCUGUGGCGCGAUAGCGCCAACGUCUUCAACCGCCAAUGCAUCCCACCACAUGAUGAUGCGUGAAGAGCCUUGGUUUUUUG, the “polymerase ribozyme fitness (log ratio)” value is reported as -5.18. With GACCAAUCUGCCCUCAGAGCUCGAGAACGUCUUCGGAUGCAGAGGUGGCAGUCUUCUGUGGCGCGAUAGCGCCAACGUCCUCAACCGCCAAUGCAUCCCACCACAUGAUGAUGCGUGAAGAGCCUUGGUUUUUUG the “polymerase ribozyme fitness (log ratio)” value was -4.9. In the case of GACCAAUCUGCCCUCAGAGCUCGAGAACGUCUUCGGCUGCAGAGGAGGCAGGCUUCGGUGGCGCGAUAGCGCCGACGUCCUCAACCUCCAAUGCAUCCCACCACAUGAUGCUGCCUGAAGAGCCUUGGUUUUUUG, the “polymerase ribozyme fitness (log ratio)” value is reported as -1.06. In the case of GACCAAUCUGCCCUCAGAGCUCGAGAACCUCUUCGGAUGCAGAGGAGGCAGGCUUCUGUGGCGCGAUAGCGCCAACGUCCUCAACCUCCAAUGCAUCCCACCACAUGAUGAUGCCUGAAUAGCCUUGGUUUUUUG, the “polymerase ribozyme fitness (log ratio)” value is reported as -2.96. With GACCAAUCUGCCCUCAGAGCUCGAGAAUAUCUUCGGAUGCAGAGGAGGCAGGCUUCGGUGGCGCGAUAGCGCCAACGUCCUCAACCUCCAAUGCAUCCCACCACAUGAUGACGCCUGAAGAGCCUUGGUUAUUUG the “polymerase ribozyme fitness (log ratio)” value was -0.425. For GACCAAUCUGCCCUCAGAGCUCGAGAACCUCUUCGGAUGCAGAGGAGGCAGGUUUCGGUGGCGCGAUAGCGCCAACGUCUUCAACCUCCGAUGCAUCCCACCACAUGAUGAUGCCUGAAGAGCCUUGGUUUUUUG, the “polymerase ribozyme fitness (log ratio)” value was -3.07. For GACCAAUCUGCCCUCAGAGCUCGAGAACCUCUUCGGAUGCAGAGGAGGCAGGCUUAGGUGGCGCGAUAGCCCCAACGUCCUCAACCACCAAUGCAUCACAUCACAUGAUCAUGCCUGAAGAGCCUUGGUUUUUUG, the “polymerase ribozyme fitness (log ratio)” value was -6.81. With GACCAAUCUGCCCUCAGAGCUCGAGAACGUCUUCGGAUGCAGAGGAGGCAGGCUUCGGUGGCGCGAUAGCGCCAACGUCCUCAACCUCCAAUGCAUCCCAACACAUGAUGAUGCCUGAAGAGCCUUGGUUUUUUG the “polymerase ribozyme fitness (log ratio)” value was -3.99. In the case of GACCAAUCUGCCCUCAGAGCUCGAGAACGUCUUCGGAUGCAGAGGAGGCAGGCUUCGGUGGCGCGAUAGCGCCAACGUCCUCCACCUCCAAUGCAUCCCACCACAUGAUGAUGCCUGAAGAGCCUUGGUUUUUUG, the “polymerase ribozyme fitness (log ratio)” value is reported as -1.32. With GACCAAUCUGCCCUCAGAGCUCGAGAACGUCUUCGGAUGCAGAGGAGGGAGGCUUCGGUGGCGCGAUAGCACCAACGUCCUCAACCUCCAAUGCAUCCCACCACAUGAUGAUGCCUGAAGAGCCGUGGUUUUUUG the “polymerase ribozyme fitness (log ratio)” value was -3.8. For GACCAAUCUGCCCUCAGAGCUCGAGAAUAUCUUCGGAUGCAGAGGAGGCAGGCUUCGGUGGCGCGAUAGCGCCAACGCCCUCAACCUCCAAUGCAUCCCAUCACAUGAUGAUGCCUGAAGAGCCUUGGUUUUUUG, the “polymerase ribozyme fitness (log ratio)” value was -2.49.

From the RNAGym collection of RNA variant scans (doi:10.1073/pnas.2313332121)
